We go through nine molecules from WO2021175954A1 (dated 2021).

Substitutions are numbered along the chain they refer to. Several values for one entry are separate records, joined by “and”; a condition that tells them apart may be missing. Equal entries are not always repeated.

First the molecules themselves.
T1: human BTNL8/BTNL3 heterodimer expressed on HEK-293T cells (human, UniProt Q6UXE8 18-466)
T1 sequence 1: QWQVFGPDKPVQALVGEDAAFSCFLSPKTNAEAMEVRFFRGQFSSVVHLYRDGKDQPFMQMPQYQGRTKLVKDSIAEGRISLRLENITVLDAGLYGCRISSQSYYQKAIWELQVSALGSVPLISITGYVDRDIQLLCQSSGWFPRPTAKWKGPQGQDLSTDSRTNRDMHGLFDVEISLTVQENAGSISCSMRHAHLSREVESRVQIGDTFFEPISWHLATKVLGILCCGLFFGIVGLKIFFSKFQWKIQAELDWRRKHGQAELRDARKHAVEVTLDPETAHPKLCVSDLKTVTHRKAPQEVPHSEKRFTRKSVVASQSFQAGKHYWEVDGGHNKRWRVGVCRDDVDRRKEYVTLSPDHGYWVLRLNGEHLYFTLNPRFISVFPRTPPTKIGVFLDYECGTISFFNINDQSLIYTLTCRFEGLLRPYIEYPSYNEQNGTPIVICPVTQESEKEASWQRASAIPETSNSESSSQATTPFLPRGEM
T1 sequence 2: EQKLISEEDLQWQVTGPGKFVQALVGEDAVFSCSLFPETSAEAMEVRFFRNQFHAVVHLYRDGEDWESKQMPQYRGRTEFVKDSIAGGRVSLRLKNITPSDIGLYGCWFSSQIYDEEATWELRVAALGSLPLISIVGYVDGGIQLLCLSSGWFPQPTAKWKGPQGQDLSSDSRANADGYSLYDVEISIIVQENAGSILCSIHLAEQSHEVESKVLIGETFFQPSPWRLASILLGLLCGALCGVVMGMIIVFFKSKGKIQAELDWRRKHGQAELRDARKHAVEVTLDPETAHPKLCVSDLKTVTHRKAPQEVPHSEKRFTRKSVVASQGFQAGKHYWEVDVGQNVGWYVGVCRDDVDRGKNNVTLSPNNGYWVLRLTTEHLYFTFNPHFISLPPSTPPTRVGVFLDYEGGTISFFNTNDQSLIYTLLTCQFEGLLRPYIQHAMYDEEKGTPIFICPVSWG

T2: recombinant human BTNL8 protein (BLI) (human, UniProt Q6UX41 18-238, limits assumed)
T2 construct: it may be the same rhBTNL8-Fc as in the Luminex assay; also called hBTNL8; recombinant BTNL8 protein
T2 sequence: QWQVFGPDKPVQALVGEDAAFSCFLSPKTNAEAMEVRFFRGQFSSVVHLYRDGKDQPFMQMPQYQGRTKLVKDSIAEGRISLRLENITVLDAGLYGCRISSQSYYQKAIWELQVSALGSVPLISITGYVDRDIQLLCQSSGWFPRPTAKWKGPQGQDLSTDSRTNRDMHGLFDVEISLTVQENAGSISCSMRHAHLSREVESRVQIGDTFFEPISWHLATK

T3: human BTNL3 with N-terminal c-Myc tag expressed on HEK-293T cells (human, UniProt Q6UXE8 18-466)
T3 construct: whole, on cells; also called HEK-BTNL3; myc-tagged BTNL3
T3 sequence: T1 sequence 2

T4: human BTNL8 expressed on cells (HEK-BTNL8 transductants); also endogenous on CaCo-2, HL-60 and primary gut … (human, UniProt Q6UX41 18-500)
T4 construct: also called Homo sapiens butyrophilin like 8
T4 sequence: T1 sequence 1

B1: chimeric anti-BTNL8 mAb mAbX1 (antibody, V domains shown)
VH: QVQLQQSGAELARPGASVKLSCKASGYIFTSYGIGWVKQRTGQGLEWIGEVYPRNGHSYYNEKFKGKATLTADRSSSTAYMQLSSLTSEDSAVYFCARGGTGSQLDYWGQGTTLTVSS
VL: DIQMTQSPASLSASVGETVTITCRASENIYSYLAWYQQKQGKSPHLLVYNAKTLAEGVPSRFSGSGSGTQFSLRISSLQPEDFGNYYCQHHYGTYTFGGGTKLEIK
notes: also called mAbXl
B2: chimeric anti-BTNL8 mAb mAbX2 (antibody, V domains shown)
VH: EVQLQQSGAEFVRPGASVKMSCTGSGLNIEDDYMHWVKQRPEQGLEWIGRIDPANGNTKYGPKFQDKATITADTSSNTAYLQLSSLTAEDTAVYYCTRNYYDGSLYYFDYWGQGTTLTVSS
VL: QIVLTQSPAIMSASLGEEITLTCSASSSVSYMHWYQQKSGTSPKLLIYSTSNLASGVPSRFSGSGSGTFYSLTISSVEAEDAADYYCHQWSRYPYTFGGGTKLEIK
B3: chimeric anti-BTNL8 mAb mAbX4 (antibody, V domains shown)
VH: EVQLQQSGAELVRPGASVKLSCTASGFNIKDDYMHWVKQRPEQALEWIGRIDPANGNTKYVPKFQDKATITADTSSNTASLQLSSLTSEDTAVYYCARWGIYDGYYYTMDSWGQGTSVTVSS
VL: QNVLIQSPAIMSASPGEKVTITCSASSSVSYMHWFQQKPGTSPKLWIYSTSNLASGVPARFSGSGSGTSYSLTISRMEAADAATYFCQQRSRYPYTFGGGTKLEIK
B4: chimeric anti-BTNL8 mAb mAbX5 (antibody, V domains shown)
VH: EVQLQQSGAELVRPGASIKLSCTASGFNIEDDYMHWVRQRPVQGLEWIGRIDPANGNANFAPKFQDKATITADTSSNTAYLQLSSLASEDTAVYYCTREGGLYYGNSDAMDYWGQGTSVTVSS
VL: B3 VL with N2I, I5T, S26R, H33Q, F35I, A59D, A80E, F86Y, Y95R
B5: chimeric anti-BTNL8 mAb mAbX3 (antibody, V domains shown)
VH: EVQLQQSGAELVRPGASVKLSCTASGFNIKDDYMHWVKQRPEQGLEWIGRIDPANANTKYAPKFQDKATITADTSSNTAYLHLSSLTSEDSAVYYCARNYYDGSPYYFDYWGQGTTLTVSS
VL: NIVMTQSPKSMSMSVGERVTLTCKASENVVTYVSWYQQKPEQSPKLLIYGASNRYTGVPDRFTGSGSATDFTLTISSVQAEDAAGYYCHQWSRYPYTFGGGTKLEIK
B6: reference murine antibody mAb X1 (antibody, V domains shown)
VH: B1 VH
VL: B1 VL
notes: Murine monoclonal antibody, tested as hybridoma supernatant or purified from it
B7: reference murine antibody mAb X2 (antibody, V domains shown)
VH: B2 VH
VL: B2 VL
notes: as for B6
B8: reference murine antibody mAb X4 (antibody, V domains shown)
VH: B3 VH
VL: B3 VL
notes: as for B6
B9: reference murine antibody mAb X5 (antibody, V domains shown)
VH: B4 VH
VL: B3 VL with N2I, I5T, S26R, H33Q, F35I, A59D, A80E, F86Y, Y95R
notes: as for B6

For the first test, the target named is T1, human BTNL8/BTNL3 heterodimer expressed …. Description: cell-based or functional assay.
Turning to B1, the “IC50/EC50 of inhibition of Vy4V51TCR reporter cell activation (NFAT-GFP, CD69, TCRV51)” value was < 0.5 µg/mL and < 3.3 nM.
For the molecule B2, the “IC50/EC50 of inhibition of Vy4V51TCR reporter cell activation (NFAT-GFP, CD69, TCRV51)” value was < 0.5 µg/mL and < 3.3 nM.
On to B3, for which the “IC50/EC50 of inhibition of Vy4V51TCR reporter cell activation (NFAT-GFP, CD69, TCRV51)” value was < 0.5 µg/mL and < 3.3 nM.
Consider B4, for which the “IC50/EC50 of inhibition of Vy4V51TCR reporter cell activation (NFAT-GFP, CD69, TCRV51)” value is < 0.5 µg/mL and < 3.3 nM.

The next test has as its target T2, recombinant human BTNL8 protein (BLI). As to the kind of experiment: BLI, recombinant human BTNL8. (In general: Biolayer interferometry detects binding as a change in optical thickness at a sensor tip.)
Regarding B5, the binding result is on record as “no binding”.

The target of another test is T3, human BTNL3 with N-terminal c-Myc tag …. As to the kind of experiment: flow cytometry on HEK-BTNL3 cells. (In general: In flow cytometry, cells or beads pass a laser one at a time.)
Take B6: the binding result was “no binding”.
For the molecule B7, the binding result was “no binding”.
As to B8, the binding result was “no binding”.
On to B9, for which the binding result is listed as “no binding”.

The target of the next test is T4, human BTNL8 expressed on cells …. Description: flow cytometry on HEK-BTNL8 cells, chimeric format.
B1: the EC50 (in general, the concentration at which the effect is half-maximal) is < 0.5 µg/mL and < 3.3 nM.
Same read-out and setting: to B2 belongs < 0.5 µg/mL and < 3.3 nM.
B3: the 50% effective concentration (EC50) is < 0.5 µg/mL and < 3.3 nM.
For B4, the EC50 is < 0.5 µg/mL and < 3.3 nM.

A further test addresses T1, human BTNL8/BTNL3 heterodimer expressed …. As to the kind of experiment: flow cytometry on HEK-BTNL3/BTNL8 cells, chimeric format.
As to B1, the EC50 was < 0.5 µg/mL and < 3.3 nM.
On the same count and under the same terms, to B2 belongs < 0.5 µg/mL and < 3.3 nM.
Same read-out and setting: to B3 belongs < 0.5 µg/mL and < 3.3 nM; to B4, < 0.5 µg/mL and < 3.3 nM.
